Where two headings read alike, the source gives them in different places. Positions of bridges follow the written chain, without caps; N, C: chain ends. Non-standard residues stand in square brackets, D forms with d. No end group written: not given here. Ida bridge carrying fatty‑acid side chain of Intermediate A‑1 = not defined here; Aib = CC(C)(N)C(=O)O
B1: polypeptide WX-010 (peptide)
peptide: Y[Aib]EGTFTSDYSI[Aib]LDKKAQKAFVEWLIAGGPSSGAPPPS-NH2
modifications: bridge 17-20; not fully specified (bridges); also: Glu bridge amino group carries fatty-acid side chain of Intermediate A-1
B2: polypeptide compound WX-001 (peptide)
peptide: Y[Aib]EGTFTSDYSI[Aib]LDKIAQKAFVKWLIAGGPSSGAPPPS-NH2
modifications: linker 20-24 via Ida bridge carrying fatty‑acid side chain of Intermediate A‑1; reading uncertain
B3: polypeptide WX-005 (peptide)
peptide: Y[Aib]EGTFTSDYSI[Aib]LDKKAQKAFVEWLIAGGPSSGAPPPS-NH2
modifications: linker 17-20 via Ida; also: Ida bridge carries fatty-acid side chain of Intermediate A-1
B4: polypeptide WX-009 (peptide)
peptide: Y[Aib]EGTFTSDYSI[Aib]LDKKAQKEFVEWLIAGGPSSGAPPPS-NH2
modifications: linker 17-20 via Ida bridge carrying fatty‑acid side chain of Intermediate A‑1; reading uncertain

Legend:
[1] = test system: mouse plasma albumin; format: in vitro ADME
Procedure: (§1) To study the binding of the test compounds to human/mouse plasma albumin. • 1. Blank matrix preparation: On the day of the experiment, the plasma was thawed in cold water and centrifuged at 3220 rpm for 5 min to remove all the blood clots. The pH of the resulting plasma was measured and adjusted to 7.4±0.1 with 1% phosphoric acid or 1 N sodium hydroxide as desired. • 2. Dilution of the test compounds: the test compounds were dissolved in dimethyl sulfoxide (DMSO) to prepare stock solutions of 10 mM and 2 mM, respectively. 2 μL of the stock solution (2 mM) was diluted with 98 μL of DMSO to obtain a working solution of 40 μM. 10 μL of the stock solution was diluted with 240 μL of DMSO to obtain a working solution of control compounds of 400 μM. A working solution of the compounds (5 μL) was mixed evenly with a blank matrix (995 μL) at a ratio of 1:200 to prepare a loading matrix. • 3. Analytical procedure • 3.1 Equal amounts of 30 μL of the loading matrix (n=2) were transferred into a sample collection plate to prepare Time 0 (T0) samples for residue determination. The samples were immediately matched with corresponding blank buffer to a final volume of 60 μL, with a volume ratio of plasma (the loading matrix) to buffer being 1:1 in each well. Then, into the TO samples of the test compounds were respectively added 60 μL of 4% H3PO4 in H2O and 480 μL of stop solution containing internal standard. They were then stored at 2° C. to 8° C. together with other samples for further treatment. • 3.2 The remaining plasma samples were pre-incubated in a carbon dioxide incubator at 37±1° C. for 30 min. Protein-free samples (F samples) were prepared. Matrix-loaded samples (230 μL) were all transferred into polycarbonate tubes (n=2) and ultracentrifuged at 37° C. and 155,000×g (35000 rpm) for 4 h. • 3.3 To prepare T samples (test samples), an additional matrix-containing sample was transferred into a separate 96-well plate (sample incubation plate) and incubated at 37° C. for 4 h. • 3.4 At the end of centrifugation, 30 μL of protein-free samples (F samples) and 30 μL of T samples were taken from the second layer (beneath the upper layer) of the supernatant and transferred into a new sample collection plate. Each sample was mixed with corresponding blank buffer or matrix to a final volume of 60 μL, and the blank matrix:buffer volume ratio is 1:1. Into all the samples were added 60 μL of 4% H3PO4 solution in water and 480 μL of stop solution containing internal standard. The mixture was centrifuged at 4000 rpm for 20 min. 100 μL of supernatant for each sample was taken for LC-MS/MS analysis.

[2] = test system: human plasma albumin; format: in vitro ADME
Procedure: as §1

[3] = design: species or system Cynomolgus macaques; details: cynomolgus monkey, in vivo, sc, 0.02 mg/kg
Procedure: (§2) To test the pharmacokinetic profiles of the compounds in Cynomolgus macaques. The pharmacokinetic characteristics in mammals following intravenous injection and subcutaneous injection of the compounds were tested using standard protocols. In the experiment, the candidate compounds were formulated into clear solution, which was administered to Cynomolgus macaques by single subcutaneous injection (SC, 0.02 mpk). The vehicle for subcutaneous injection was citrate buffer solution (20 mM, pH=7). The whole blood was collected and processed to get the plasma. The drug concentration was analyzed by LC-MS/MS, and the pharmacokinetic parameters were calculated using Phoenix WinNonlin software.

[4] = design: species or system SD rats; details: rat, in vivo, sc, 0.048 mg/kg
Procedure: as §2, with “SD rats.” for “Cynomolgus macaques.”, “rodent animals” for “mammals”, “following” for “following intravenous injection and”, “the rats” for “Cynomolgus macaques”, “0.048” for “0.02”, “for” for “for subcutaneous”

[5] = design: species or system C57BL/6 mice; details: mouse, in vivo, sc, 0.048 mg/kg
Procedure: as §2, with “C57BL/6 mice.” for “Cynomolgus macaques.”, “rodent animals” for “mammals”, “following” for “following intravenous injection and”, “administered” for “administered to Cynomolgus macaques”, “by” for “by single”, “0.048” for “0.02”

[6] = biological target: GLP-1R (UniProt P43220 24-463, limits assumed); experiment: cell-based or functional assay
[7] = biological target: T1, GIPR (UniProt P48546 22-466, limits assumed); experiment: cell-based or functional assay
T1 sequence (looked up): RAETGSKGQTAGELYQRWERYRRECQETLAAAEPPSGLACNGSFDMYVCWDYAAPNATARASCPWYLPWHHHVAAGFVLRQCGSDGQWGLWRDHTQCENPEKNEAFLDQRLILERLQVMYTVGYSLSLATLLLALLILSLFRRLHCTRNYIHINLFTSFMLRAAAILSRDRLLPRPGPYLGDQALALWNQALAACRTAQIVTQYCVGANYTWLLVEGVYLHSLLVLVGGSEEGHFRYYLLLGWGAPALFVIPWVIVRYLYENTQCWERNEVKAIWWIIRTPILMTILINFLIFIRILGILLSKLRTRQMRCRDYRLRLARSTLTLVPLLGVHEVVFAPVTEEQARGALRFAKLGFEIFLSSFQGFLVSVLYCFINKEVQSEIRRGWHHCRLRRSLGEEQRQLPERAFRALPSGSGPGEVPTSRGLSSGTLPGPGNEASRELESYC

Molecule	PPB % unbound (M) [1]	PPB % unbound (H) [2]	EC50, cAMP assay, (-) 1% HSA [6] [pM]	EC50, cAMP assay, (-) 1% HSA [7] [pM]	EC50, cAMP assay, (+) 1% HSA [6] [pM]	Ratio (EC50 (+) 1% HSA over (-) 1% HSA) [6]	EC50, cAMP assay, (+) 1% HSA [7] [pM]	Ratio (EC50 (+) 1% HSA over (-) 1% HSA) [7]	further results
CC[C@H](C)[C@H](NC(=O)[C@H](CC(C)C)NC(=O)[C@H](Cc1c[nH]c2ccccc12)NC(=O)[C@H](CCC(=O)O)NC(=O)[C@@H](NC(=O)[C@H](Cc1ccccc1)NC(=O)[C@H](C)NC(=O)[C@@H]1CCCCNC(=O)CN(C(=O)COCCOCCNC(=O)COCCOCCNC(=O)CC[C@H](NC(=O)CCCCCCCCCCCCCCCCCCC(=O)O)C(=O)O)CC(=O)NCCCC[C@H](NC(=O)[C@H](CCCCN)NC(=O)[C@H](CC(=O)O)NC(=O)[C@H](CC(C)C)NC(=O)C(C)(C)NC(=O)[C@@H](NC(=O)[C@H](CO)NC(=O)[C@H](Cc2ccc(O)cc2)NC(=O)[C@H](CC(=O)O)NC(=O)[C@H](CO)NC(=O)[C@@H](NC(=O)[C@H](Cc2ccccc2)NC(=O)[C@@H](NC(=O)CNC(=O)[C@H](CCC(=O)O)NC(=O)C(C)(C)NC(=O)[C@@H](N)Cc2ccc(O)cc2)[C@@H](C)O)[C@@H](C)O)[C@@H](C)CC)C(=O)N[C@@H](C)C(=O)N[C@@H](CCC(N)=O)C(=O)N1)C(C)C)C(=O)N[C@@H](C)C(=O)NCC(=O)NCC(=O)N1CCC[C@H]1C(=O)N[C@@H](CO)C(=O)N[C@@H](CO)C(=O)NCC(=O)N[C@@H](C)C(=O)N1CCC[C@H]1C(=O)N1CCC[C@H]1C(=O)N1CCC[C@H]1C(=O)N[C@@H](CO)C(N)=O [WX-005]	NA/NA	NA/NA	–	–	–	–	–	–	–
CC[C@H](C)[C@H](NC(=O)[C@H](CC(C)C)NC(=O)[C@H](Cc1c[nH]c2ccccc12)NC(=O)[C@H](CCC(=O)O)NC(=O)[C@@H](NC(=O)[C@H](Cc1ccccc1)NC(=O)[C@H](CCC(=O)O)NC(=O)[C@@H]1CCCCNC(=O)CN(C(=O)COCCOCCNC(=O)COCCOCCNC(=O)CC[C@H](NC(=O)CCCCCCCCCCCCCCCCCCC(=O)O)C(=O)O)CC(=O)NCCCC[C@H](NC(=O)[C@H](CCCCN)NC(=O)[C@H](CC(=O)O)NC(=O)[C@H](CC(C)C)NC(=O)C(C)(C)NC(=O)[C@@H](NC(=O)[C@H](CO)NC(=O)[C@H](Cc2ccc(O)cc2)NC(=O)[C@H](CC(=O)O)NC(=O)[C@H](CO)NC(=O)[C@@H](NC(=O)[C@H](Cc2ccccc2)NC(=O)[C@@H](NC(=O)CNC(=O)[C@H](CCC(=O)O)NC(=O)C(C)(C)NC(=O)[C@@H](N)Cc2ccc(O)cc2)[C@@H](C)O)[C@@H](C)O)[C@@H](C)CC)C(=O)N[C@@H](C)C(=O)N[C@@H](CCC(N)=O)C(=O)N1)C(C)C)C(=O)N[C@@H](C)C(=O)NCC(=O)NCC(=O)N1CCC[C@H]1C(=O)N[C@@H](CO)C(=O)N[C@@H](CO)C(=O)NCC(=O)N[C@@H](C)C(=O)N1CCC[C@H]1C(=O)N1CCC[C@H]1C(=O)N1CCC[C@H]1C(=O)N[C@@H](CO)C(N)=O [WX-009]	NA/NA	NA/NA	–	–	–	–	–	–	AUC(0-t) [3]: 4.74 µM·h; half-life [3]: 105 h; AUC(0-t) [4]: 1.09 µM·h; half-life [4]: 21 h; AUC(0-t) [5]: 1.99 µM·h; half-life [5]: 17 h
B1	–	–	17	140	–	–	–	–	–
B2	–	–	59.6	324	16600	279	16000	49.3	–
B3	–	–	36	160	7630	212	19300	121	–
B4	–	–	14	74	–	–	–	–	–

From patent US20260055142A1, “PHARMACEUTICAL USE OF POLYPEPTIDE IN PREPARATION OF DRUGS FOR TREATING AND/OR PREVENTING DIABETES AND OBESITY AND RELATED DISEASES THEREOF” (GUANGDONG RAYNOVENT BIOTECH CO., LTD., priority 2022, published 2026)
